B1: engineered monoclonal antibody 12-19 (antibody, V domains shown)
VH: QVQLVESGGGVVQPGRSLRLSCEASGFTFNTYDMHWARQAPGKGLEWVAVIWYDGSNKFYADSVKGRFTISRDNSKNTLYLQMNSLRAEDTAVYYCARDRTPVYDILTGYYWPPPRVDGMDVWGQGTTVTVSS
VL: DNVMTQTPFSLSVTPGQPASISCKSSQSLLHSDGKTYLYWYLQKPGQSPQLLIYEVSNRFSGVPERFSGSGSGTDFTLKISRVEAEDVGVYYCMQSIQLPFTFGQGTKLEIK
B2: engineered monoclonal antibody 12-16 (antibody, V domains shown)
VH: QVQLVESGGGVVQPGRSLRLSCAASGFTFSNYGMHWVRQAPGKGLEWVAIISFDGSNRYYADSVKGRFTISRDNSKNTLYLQMDSLRAEDTAVYYCAKDLSFYYDISTGYYPQSYNSGTDVWGQGTTVTVSS
VL: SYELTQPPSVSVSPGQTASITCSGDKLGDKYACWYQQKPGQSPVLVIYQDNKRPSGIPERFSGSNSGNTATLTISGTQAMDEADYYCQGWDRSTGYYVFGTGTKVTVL

Target: SARS-COV-2 D614G spike trimer (SARS-CoV-2, UniProt P0DTC2 14-1208)
Test: SPR

| Binder | Kd |
| --- | --- |
| B1 | 9.35 nM |
| B2 | 1.6 nM |

Reference: patent publication US20240343781A1 (published 2024)
